Reference: patent publication US20140274782A1, “AFFINITY REAGENTS AND METHODS FOR DETECTION, PURIFICATION, AND PROTEOMIC ANALYSIS OF METHYLATED PROTEINS” (The Board of Trustees of the Leland Stanford Junior …, priority 2013, published 2014)

T1: G9a and GLP (Homo sapiens, UniProt Q96KQ7+Q9H9B1)
T1 sequence (Q96KQ7 2-1210 limits assumed): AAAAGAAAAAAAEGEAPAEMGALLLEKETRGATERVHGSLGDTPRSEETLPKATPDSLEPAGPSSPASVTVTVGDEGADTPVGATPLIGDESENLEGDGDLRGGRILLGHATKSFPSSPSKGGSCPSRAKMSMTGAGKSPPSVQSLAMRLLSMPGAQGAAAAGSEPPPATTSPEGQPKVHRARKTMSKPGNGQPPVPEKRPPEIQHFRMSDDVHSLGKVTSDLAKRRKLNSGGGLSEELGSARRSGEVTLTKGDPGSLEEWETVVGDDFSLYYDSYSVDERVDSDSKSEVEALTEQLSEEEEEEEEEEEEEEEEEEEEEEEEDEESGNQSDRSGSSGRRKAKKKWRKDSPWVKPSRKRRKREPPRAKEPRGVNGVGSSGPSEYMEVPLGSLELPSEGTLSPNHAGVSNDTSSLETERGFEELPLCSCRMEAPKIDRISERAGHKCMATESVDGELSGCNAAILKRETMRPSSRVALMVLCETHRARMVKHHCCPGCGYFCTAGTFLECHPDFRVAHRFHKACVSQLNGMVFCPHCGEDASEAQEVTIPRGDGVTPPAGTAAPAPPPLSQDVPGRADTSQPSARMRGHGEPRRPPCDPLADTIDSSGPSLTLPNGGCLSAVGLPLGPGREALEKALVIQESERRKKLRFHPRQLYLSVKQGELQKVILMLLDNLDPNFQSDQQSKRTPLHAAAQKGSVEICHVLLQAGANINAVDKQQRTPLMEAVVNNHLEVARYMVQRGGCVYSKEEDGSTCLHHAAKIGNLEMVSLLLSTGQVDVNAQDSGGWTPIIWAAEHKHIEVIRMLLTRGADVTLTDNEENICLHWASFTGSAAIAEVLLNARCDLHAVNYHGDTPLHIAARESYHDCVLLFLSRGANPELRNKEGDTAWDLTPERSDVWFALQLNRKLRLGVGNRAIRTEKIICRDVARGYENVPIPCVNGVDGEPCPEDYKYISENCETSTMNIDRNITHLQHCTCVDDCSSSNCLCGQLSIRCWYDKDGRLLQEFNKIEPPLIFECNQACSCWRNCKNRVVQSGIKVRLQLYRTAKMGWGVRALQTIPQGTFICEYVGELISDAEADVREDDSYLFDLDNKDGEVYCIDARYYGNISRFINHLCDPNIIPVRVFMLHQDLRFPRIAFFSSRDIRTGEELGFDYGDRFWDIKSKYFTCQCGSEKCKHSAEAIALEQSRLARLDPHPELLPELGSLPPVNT
T1 sequence (Q9H9B1 2-1298 limits assumed): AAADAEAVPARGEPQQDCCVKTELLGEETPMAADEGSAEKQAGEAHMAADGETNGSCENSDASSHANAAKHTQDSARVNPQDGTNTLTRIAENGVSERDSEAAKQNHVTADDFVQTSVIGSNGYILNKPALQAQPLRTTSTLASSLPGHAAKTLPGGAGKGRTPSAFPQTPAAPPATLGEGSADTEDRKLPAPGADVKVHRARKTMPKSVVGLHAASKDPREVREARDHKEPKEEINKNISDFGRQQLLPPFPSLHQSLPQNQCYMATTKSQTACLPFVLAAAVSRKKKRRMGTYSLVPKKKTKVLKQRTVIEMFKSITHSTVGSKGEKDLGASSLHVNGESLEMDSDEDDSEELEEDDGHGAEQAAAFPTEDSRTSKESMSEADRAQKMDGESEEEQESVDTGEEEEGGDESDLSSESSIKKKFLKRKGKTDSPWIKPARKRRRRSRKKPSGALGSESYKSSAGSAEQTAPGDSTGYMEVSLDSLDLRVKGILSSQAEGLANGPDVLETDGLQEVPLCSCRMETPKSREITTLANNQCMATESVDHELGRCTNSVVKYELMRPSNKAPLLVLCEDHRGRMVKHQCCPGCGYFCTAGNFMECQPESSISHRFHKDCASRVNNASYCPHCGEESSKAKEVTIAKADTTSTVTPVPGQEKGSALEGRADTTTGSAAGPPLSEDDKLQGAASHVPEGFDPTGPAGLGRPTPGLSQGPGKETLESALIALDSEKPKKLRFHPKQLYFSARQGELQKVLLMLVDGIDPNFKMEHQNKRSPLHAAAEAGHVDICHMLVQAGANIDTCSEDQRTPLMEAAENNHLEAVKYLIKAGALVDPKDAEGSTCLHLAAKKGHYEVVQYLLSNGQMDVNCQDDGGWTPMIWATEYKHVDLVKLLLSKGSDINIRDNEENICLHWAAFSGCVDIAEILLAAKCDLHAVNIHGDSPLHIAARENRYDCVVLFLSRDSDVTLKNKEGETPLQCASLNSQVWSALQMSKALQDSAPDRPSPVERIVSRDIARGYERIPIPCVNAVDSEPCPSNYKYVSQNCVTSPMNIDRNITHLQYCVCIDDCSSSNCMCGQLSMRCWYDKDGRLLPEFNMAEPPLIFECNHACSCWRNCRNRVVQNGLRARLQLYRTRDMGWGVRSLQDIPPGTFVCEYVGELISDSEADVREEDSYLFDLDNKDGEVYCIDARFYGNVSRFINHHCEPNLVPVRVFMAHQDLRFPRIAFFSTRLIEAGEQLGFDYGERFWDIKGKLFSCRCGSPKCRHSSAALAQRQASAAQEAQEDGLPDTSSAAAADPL


What was measured:
[1] = test system: 3×MBT domain of L3MBTL1; assay: Triple SILAC pull-down, 3xMBT/3xMBTD355N ratio (cytoplasmic, nuclear and chromatin fractions of 293T cells); type: binding, human; conditions: SILAC ratio, pull-down 3xMBT vs 3xMBTD355N; for 3xMBT/D355N UNC Heavy: experiment with UNC0638 in heavy SILAC media; for 3xMBT/D355N UNC Light: experiment with UNC0638 in light SILAC media;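 as to all read-outs here: proteins quantified with MaxQuant, requiring at least two unique peptides and quantification in both label directions, normalized to the mean of proteins from a digested loading control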
[2] = target: T1, G9a and GLP; assay: Triple SILAC pull-down after UNC0638 treatment of 293T cells, DMSO/UNC0638 ratio of protein captured by 3×MBT; type: cell-based; set-up: endogenous in cells; host or cells: HEK 293T; conditions: for Relative to UNC0638 UNC Heavy / Relative to UNC0638 UNC Light: SILAC ratio DMSO/UNC0638 of protein pulled down with 3xMBT; for Relative to UNC0638 UNC Heavy: UNC0638 in heavy SILAC media; for Relative to UNC0638 UNC Light: UNC0638 in light SILAC media; for Relative to UNC0638 Average: average of UNC Light and UNC Heavy experiments;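 as to all read-outs here: mass spectrometry (Q-Exactive) SILAC quantitation, DMSO/UNC0638 ratio computed after subtracting 3×MBTD355N mutant pull-down background, only proteins with at least twofold 3×MBT over mutant signal considered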

| Molecule | 3xMBT/D355N UNC Heavy [1] [log base 2] | 3xMBT/D355N UNC Light [1] [log base 2] | Relative to UNC0638 UNC Heavy [2] [log base 2] | Relative to UNC0638 UNC Light [2] [log base 2] | Relative to UNC0638 Average [2] [log base 2] |
| --- | --- | --- | --- | --- | --- |
| CLASP2 (protein, UniProt O75122 1-1294, looked up) CLIP-associating protein 2: MAMGDDKSFDDEESVDGNRPSSAASAFKVPAPKTSGNPANSARKPGSAGGPKVGGASKEGGAGAVDEDDFIKAFTDVPSIQIYSSRELEETLNKIREILSDDKHDWDQRANALKKIRSLLVAGAAQYDCFFQHLRLLDGALKLSAKDLRSQVVREACITVAHLSTVLGNKFDHGAEAIVPTLFNLVPNSAKVMATSGCAAIRFIIRHTHVPRLIPLITSNCTSKSVPVRRRSFEFLDLLLQEWQTHSLERHAAVLVETIKKGIHDADAEARVEARKTYMGLRNHFPGEAETLYNSLEPSYQKSLQTYLKSSGSVASLPQSDRSSSSSQESLNRPFSSKWSTANPSTVAGRVSAGSSKASSLPGSLQRSRSDIDVNAAAGAKAHHAAGQSVRSGRLGAGALNAGSYASLEDTSDKLDGTASEDGRVRAKLSAPLAGMGNAKADSRGRSRTKMVSQSQPGSRSGSPGRVLTTTALSTVSSGVQRVLVNSASAQKRSKIPRSQGCSREASPSRLSVARSSRIPRPSVSQGCSREASRESSRDTSPVRSFQPLASRHHSRSTGALYAPEVYGASGPGYGISQSSRLSSSVSAMRVLNTGSDVEEAVADALKKPARRRYESYGMHSDDDANSDASSACSERSYSSRNGSIPTYMRQTEDVAEVLNRCASSNWSERKEGLLGLQNLLKNQRTLSRVELKRLCEIFTRMFADPHGKRVFSMFLETLVDFIQVHKDDLQDWLFVLLTQLLKKMGADLLGSVQAKVQKALDVTRESFPNDLQFNILMRFTVDQTQTPSLKVKVAILKYIETLAKQMDPGDFINSSETRLAVSRVITWTTEPKSSDVRKAAQSVLISLFELNTPEFTMLLGALPKTFQDGATKLLHNHLRNTGNGTQSSMGSPLTRPTPRSPANWSSPLTSPTNTSQNTLSPSAFDYDTENMNSEDIYSSLRGVTEAIQNFSFRSQEDMNEPLKRDSKKDDGDSMCGGPGMSDPRAGGDATDSSQTALDNKASLLHSMPTHSSPRSRDYNPYNYSDSISPFNKSALKEAMFDDDADQFPDDLSLDHSDLVAELLKELSNHNERVEERKIALYELMKLTQEESFSVWDEHFKTILLLLLETLGDKEPTIRALALKVLREILRHQPARFKNYAELTVMKTLEAHKDPHKEVVRSAEEAASVLATSISPEQCIKVLCPIIQTADYPINLAAIKMQTKVIERVSKETLNLLLPEIMPGLIQGYDNSESSVRKACVFCLVAVHAVIGDELKPHLSQLTGSKMKLLNLYIKRAQTGSGGADPTTDVSGQS | 2.43 | 2.10 | 0.45 | 0.19 | 0.32 |
| DNAJC2 (protein, UniProt Q99543 1-621, looked up) DnaJ homolog subfamily C …: MLLLPSAADGRGTAITHALTSASTLCQVEPVGRWFEAFVKRRNRNASASFQELEDKKELSEESEDEELQLEEFPMLKTLDPKDWKNQDHYAVLGLGHVRYKATQRQIKAAHKAMVLKHHPDKRKAAGEPIKEGDNDYFTCITKAYEMLSDPVKRRAFNSVDPTFDNSVPSKSEAKDNFFEVFTPVFERNSRWSNKKNVPKLGDMNSSFEDVDIFYSFWYNFDSWREFSYLDEEEKEKAECRDERRWIEKQNRATRAQRKKEEMNRIRTLVDNAYSCDPRIKKFKEEEKAKKEAEKKAKAEAKRKEQEAKEKQRQAELEAARLAKEKEEEEVRQQALLAKKEKDIQKKAIKKERQKLRNSCKTWNHFSDNEAERVKMMEEVEKLCDRLELASLQCLNETLTSCTKEVGKAALEKQIEEINEQIRKEKEEAEARMRQASKNTEKSTGGGGNGSKNWSEDDLQLLIKAVNLFPAGTNSRWEVIANYMNIHSSSGVKRTAKDVIGKAKSLQKLDPHQKDDINKKAFDKFKKEHGVVPQADNATPSERFEGPYTDFTPWTTEEQKLLEQALKTYPVNTPERWEKIAEAVPGRTKKDCMKRYKELVEMVKAKKAAQEQVLNASRAKK | 2.18 | 3.04 | 0.28 | 0.33 | 0.30 |
| TXN (protein, UniProt P10599 2-105, looked up) Thioredoxin: VKQIESKTAFQEALDAAGDKLVVVDFSATWCGPCKMIKPFFHSLSEKYSNVIFLEVDVDDCQDVASECEVKCMPTFQFFKKGQKVGEFSGANKEKLEATINELV | 1.75 | 1.93 | 0.14 | 0.38 | 0.26 |
| POLDIP3 (protein, UniProt Q9BY77 2-421, looked up) Polymerase delta-interacting …: ADISLDELIRKRGAAAKGRLNARPGVGGVRSRVGIQQGLLSQSTRTATFQQRFDARQKIGLSDARLKLGVKDAREKLLQKDARFRIKGKVQDAREMLNSRKQQTTVPQKPRQVADAREKISLKRSSPAAFINPPIGTVTPALKLTKTIQVPQQKAMAPLHPHPAGMRINVVNNHQAKQNLYDLDEDDDGIASVPTKQMKFAASGGFLHHMAGLSSSKLSMSKALPLTKVVQNDAYTAPALPSSIRTKALTNMSRTLVNKEEPPKELPAAEPVLSPLEGTKMTVNNLHPRVTEEDIVELFCVCGALKRARLVHPGVAEVVFVKKDDAITAYKKYNNRCLDGQPMKCNLHMNGNVITSDQPILLRLSDSPSMKKESELPRRVNSASSSNPPAEVDPDTILKALFKSSGASVTTQPTEFKIKL | 2.51 | 2.76 | 0.39 | 0.14 | 0.26 |
